For this data set, the target named is YadA (Yersinia adhesin A) displayed on E. coli BL21 DE3 cells (Yersinia enterocolitica) (UniProt P0C2W0). The experiment in a line: fluorescence cell-binding assay (eluted FAM-aptamer). Particulars: 1.4 mM Mg2+; whole cells; authors say true Kd for pure YadA is probably higher; Kd: PBS 1x pH 7.4 (137 mM NaCl, 2.7 mM KCl, 8 mM Na2HPO4, 2 mM KH2PO4) + 1.4 mM MgCl2, 37 C, 75 min, 0-100 nM aptamer; sensor: inactivated cells in PBS 1x pH 7.

Drawing on publication PMC9405658, this text covers Kd for one sequence.

Sequence of UniProt P0C2W0 (P0C2W0 whole entry): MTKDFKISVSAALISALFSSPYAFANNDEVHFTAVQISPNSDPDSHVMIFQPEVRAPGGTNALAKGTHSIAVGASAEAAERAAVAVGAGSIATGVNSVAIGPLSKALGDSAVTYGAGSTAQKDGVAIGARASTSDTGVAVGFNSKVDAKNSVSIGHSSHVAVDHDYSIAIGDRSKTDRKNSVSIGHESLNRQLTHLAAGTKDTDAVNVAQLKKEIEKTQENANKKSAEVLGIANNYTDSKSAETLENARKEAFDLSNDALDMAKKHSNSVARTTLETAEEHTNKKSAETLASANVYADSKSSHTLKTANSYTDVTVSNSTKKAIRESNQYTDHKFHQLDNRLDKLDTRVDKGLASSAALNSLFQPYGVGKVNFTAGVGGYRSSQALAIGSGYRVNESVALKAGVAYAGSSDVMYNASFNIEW

In the case of “ATCCAGAGTGACGCAGCATGACAGACGGGAGAGACACGACGGGGGCGGGGAGTGAGAAGCGCGCGCTGAATGTCGTTGGTGGCCC [Apt1 (FAM)]”, the Kd (as a rule, the equilibrium constant for the complex coming apart) came to 11 nM.
